In the experiment the target is Synthetic Aβ(1–42), prepared as amyloid-beta-derived diffusible ligands (ADDLs) (human). The experiment can be described thus: SEC; analytical SEC of the ADDL preparation (Superdex 75 5/150, PBS, pH 7.4); oligomer peak area divided by oligomer plus monomer peak area; three separate experiments. (SEC sorts molecules by how far they enter the pores of the column.)

Consider “Synthetic Aβ(1–42), prepared as amyloid-beta-derived diffusible ligands (ADDLs) (peptide)”, for which the percent of total Aβ in species larger than monomers stood at 47%.

Source of the values: article PMC4369838.
